Laboratory results taken from patent US20100003195A1.
Bridge positions count the residues as written; N and C are the ends.

What was measured:
[1] = molecular target: KDR on KDR-transfected 293H cells (human), P35968; experiment: competitor 125I-VEGF (300 pM), KDR-transfected 293H cells, peptide 30 µM; conditions: remark: other sources report otherwise
[2] = molecular target: KDR on KDR-transfected 293H cells (human), P35968; experiment: competitor 125I-VEGF (300 pM), KDR-transfected 293H cells, peptide 0.3 µM; conditions: remark: other sources report otherwise

- % inhibition of 125I-labeled VEGF binding [1]: 48%
- % inhibition of 125I-labeled VEGF binding [2]: 24.4%
Binder: Ac-AGPKWCEEDWYYCMITGTGGGK-NH2 (disulfide 6-13 (inferred); also: fluorescein on C-terminal Lys in FP only) [SEQ ID NO:264]
